As usually defined, the EC50 is the concentration giving half of the maximal effect. High values mean a need for much substance, low ones an effect from little substance.

Experimental findings from patent EP4803149A2 (Lyvgen Biopharma Holdings Limited, dated 2026) are described below.

B1: Ly2278 (bispecific antibody)
chain 1: QVQLQQSGAELVRPGSSVKISCKASGYAFSSYWMNWVKQRPGQGLEWIGQIWPGDGDTNYNGKFKGKATLTADESSSTAYMQLSSLASEDSAVYFCARRETTTVGRYYYAMDYWGQGTTVTVSSASTKGPSVFPLAPSSKSTSGGTAALGCLVKDYFPEPVTVSWNSGALTSGVHTFPAVLQSSGLYSLSSVVTVPSSSLGTQTYICNVNHKPSNTKVDKKVEPKSCGGGGSGGGGSGGGGSGGGGSEVQLVESGGGLVQPGGSLRLSCAASGFTFSTYAMNWVRQAPGKGLEWVGRIRSKYNNYATYYADSVKGRFTISRDDSKNSLYLQMNSLKTEDTAVYYCVRHGNFGNSYVSWFAYWGQGTLVTVSSGGGGSDKTHTCPPCPAPEAAGPSVFLFPPKPKDTLMISRTPEVTCVVVDVSHEDPEVKFNWYVDGVEVHNAKTKPREEQYNSTYRVVSVLTVLHQDWLNGKEYKCKVSNKALPAPIEKTISKAKGQPREPQVYTLPPSREEMTKNQVSLWCLVKGFYPSDIAVEWESNGQPENNYKTTPPVLDSDGSFFLYSKLTVDKSRWQQGNVFSCSVMHEALHNHYTQKSLSLSPG
chain 2: QVQLQQSGAELVRPGSSVKISCKASGYAFSSYWMNWVKQRPGQGLEWIGQIWPGDGDTNYNGKFKGKATLTADESSSTAYMQLSSLASEDSAVYFCARRETTTVGRYYYAMDYWGQGTTVTVSSASTKGPSVFPLAPSSKSTSGGTAALGCLVKDYFPEPVTVSWNSGALTSGVHTFPAVLQSSGLYSLSSVVTVPSSSLGTQTYICNVNHKPSNTKVDKKVEPKSCGGGGSGGGGSGGGGSGGGGSQAVVTQEPSLTVSPGGTVTLTCRSSTGAVTTSNYANWVQQKPGQAPRGLIGGTNKRAPWTPARFSGSLLGGKAALTITGAQAEDEADYYCALWYSNLWVFGGGTKLTVLGGGGSDKTHTCPPCPAPEAAGPSVFLFPPKPKDTLMISRTPEVTCVVVDVSHEDPEVKFNWYVDGVEVHNAKTKPREEQYNSTYRVVSVLTVLHQDWLNGKEYKCKVSNKALPAPIEKTISKAKGQPREPQVYTLPPSREEMTKNQVSLSCAVKGFYPSDIAVEWESNGQPENNYKTTPPVLDSDGSFFLVSKLTVDKSRWQQGNVFSCSVMHEALHNRFTQKSLSLSPG
chain 3: not shown
notes: CD19/CD3; central CD3 Fv
B2: Ly1965 (bispecific antibody)
chain 1: QVQLVQSGAEVKKPGASVKVSCKASGYTFTSYVMHWVRQKPGQGLEWIGYINPYNEGTESTDKFKGRATMTSDKSTSTVYMELSSLRSEDTAVYYCASIYYGYEGTYFGVWGQGTLVTVSSASTKGPSVFPLAPSSKSTSGGTAALGCLVKDYFPEPVTVSWNSGALTSGVHTFPAVLQSSGLYSLSSVVTVPSSSLGTQTYICNVNHKPSNTKVDKKVEPKSCGGGGSGGGGSGGGGSGGGGSEVQLVESGGGLVQPGGSLRLSCAASGFTFSTYAMNWVRQAPGKGLEWVGRIRSKYNNYATYYADSVKGRFTISRDDSKNSLYLQMNSLKTEDTAVYYCVRHGNFGNSYVSWFAYWGQGTLVTVSSGGGGSDKTHTCPPCPAPEAAGPSVFLFPPKPKDTLMISRTPEVTCVVVDVSHEDPEVKFNWYVDGVEVHNAKTKPREEQYNSTYRVVSVLTVLHQDWLNGKEYKCKVSNKALPAPIEKTISKAKGQPREPQVYTLPPSREEMTKNQVSLWCLVKGFYPSDIAVEWESNGQPENNYKTTPPVLDSDGSFFLYSKLTVDKSRWQQGNVFSCSVMHEALHNHYTQKSLSLSPG
chain 2: QVQLVQSGAEVKKPGASVKVSCKASGYTFTSYVMHWVRQKPGQGLEWIGYINPYNEGTESTDKFKGRATMTSDKSTSTVYMELSSLRSEDTAVYYCASIYYGYEGTYFGVWGQGTLVTVSSASTKGPSVFPLAPSSKSTSGGTAALGCLVKDYFPEPVTVSWNSGALTSGVHTFPAVLQSSGLYSLSSVVTVPSSSLGTQTYICNVNHKPSNTKVDKKVEPKSCGGGGSGGGGSGGGGSGGGGSQAVVTQEPSLTVSPGGTVTLTCRSSTGAVTTSNYANWVQQKPGQAPRGLIGGTNKRAPWTPARFSGSLLGGKAALTITGAQAEDEADYYCALWYSNLWVFGGGTKLTVLGGGGSDKTHTCPPCPAPEAAGPSVFLFPPKPKDTLMISRTPEVTCVVVDVSHEDPEVKFNWYVDGVEVHNAKTKPREEQYNSTYRVVSVLTVLHQDWLNGKEYKCKVSNKALPAPIEKTISKAKGQPREPQVYTLPPSREEMTKNQVSLSCAVKGFYPSDIAVEWESNGQPENNYKTTPPVLDSDGSFFLVSKLTVDKSRWQQGNVFSCSVMHEALHNRFTQKSLSLSPG
chain 3: EIVLTQSPATLSLSPGERATLSCRASSSVSYMHWYQQKPGQAPRPWIYATSNLASGIPARFSGSRSGTDYTLTISSLEPEDFAVYYCQQWSSNTLTFGGGTKVEIKRTVAAPSVFIFPPSDEQLKSGTASVVCLLNNFYPREAKVQWKVDNALQSGNSQESVTEQDSKDSTYSLSSTLTLSKADYEKHKVYACEVTHQGLSSPVTKSFNRGEC
notes: B7H3/CD3; central CD3 Fv
B3: Ly1963 (multi-specific antibody)
chain 1: QVQLVQSGAEVKKPGASVKVSCKASGYTFTSYVMHWVRQKPGQGLEWIGYINPYNEGTESTDKFKGRATMTSDKSTSTVYMELSSLRSEDTAVYYCASIYYGYEGTYFGVWGQGTLVTVSSASTKGPSVFPLAPSSKSTSGGTAALGCLVKDYFPEPVTVSWNSGALTSGVHTFPAVLQSSGLYSLSSVVTVPSSSLGTQTYICNVNHKPSNTKVDKKVEPKSCGGGGSGGGGSGGGGSGGGGSEVQLVESGGGLVQPGGSLRLSCAASGFTFSTYAMNWVRQAPGKGLEWVGRIRSKYNNYATYYADSVKGRFTISRDDSKNSLYLQMNSLKTEDTAVYYCVRHGNFGNSYVSWFAYWGQGTLVTVSSGGGGSDKTHTCPPCPAPEAAGPSVFLFPPKPKDTLMISRTPEVTCVVVDVSHEDPEVKFNWYVDGVEVHNAKTKPREEQYNSTYRVVSVLTVLHQDWLNGKEYKCKVSNKALPAPIEKTISKAKGQPREPQVYTLPPSREEMTKNQVSLWCLVKGFYPSDIAVEWESNGQPENNYKTTPPVLDSDGSFFLYSKLTVDKSRWQQGNVFSCSVMHEALHNHYTQKSLSLSPGGGGGSGGGGSGGGGSGGGGSQVQLVQSGAEVKKPGASVKVSCKASGYTFAGFEMHWVRQAPGQGLEWMGAIDPKTGGTDYNQKFKDRVTMTRDTSISTAYMELSRLRSDDTAVYYCARDLGYFDVWGQGTLVTVSS
chain 2: QVQLVQSGAEVKKPGASVKVSCKASGYTFTSYVMHWVRQKPGQGLEWIGYINPYNEGTESTDKFKGRATMTSDKSTSTVYMELSSLRSEDTAVYYCASIYYGYEGTYFGVWGQGTLVTVSSASTKGPSVFPLAPSSKSTSGGTAALGCLVKDYFPEPVTVSWNSGALTSGVHTFPAVLQSSGLYSLSSVVTVPSSSLGTQTYICNVNHKPSNTKVDKKVEPKSCGGGGSGGGGSGGGGSGGGGSQAVVTQEPSLTVSPGGTVTLTCRSSTGAVTTSNYANWVQQKPGQAPRGLIGGTNKRAPWTPARFSGSLLGGKAALTITGAQAEDEADYYCALWYSNLWVFGGGTKLTVLGGGGSDKTHTCPPCPAPEAAGPSVFLFPPKPKDTLMISRTPEVTCVVVDVSHEDPEVKFNWYVDGVEVHNAKTKPREEQYNSTYRVVSVLTVLHQDWLNGKEYKCKVSNKALPAPIEKTISKAKGQPREPQVYTLPPSREEMTKNQVSLSCAVKGFYPSDIAVEWESNGQPENNYKTTPPVLDSDGSFFLVSKLTVDKSRWQQGNVFSCSVMHEALHNHYTQKSLSLSPGGGGGSGGGGSGGGGSGGGGSDIQMTQSPSSLSASVGDRVTITCRASQDIRSNLNWYQQKPGGAVKLLIYYTSRLHSGVPSRFSGSGSGTDYTLTISSLQPEDFATYFCQQSEKLPRTFGGGTKVEIR
chain 3: EIVLTQSPATLSLSPGERATLSCRASSSVSYMHWYQQKPGQAPRPWIYATSNLASGIPARFSGSRSGTDYTLTISSLEPEDFAVYYCQQWSSNTLTFGGGTKVEIKRTVAAPSVFIFPPSDEQLKSGTASVVCLLNNFYPREAKVQWKVDNALQSGNSQESVTEQDSKDSTYSLSSTLTLSKADYEKHKVYACEVTHQGLSSPVTKSFNRGEC
notes: B7H3/CD3/CD137 tri-specific; central CD3 Fv, terminal CD137 Fv
B4: Ly2128 (multi-specific antibody)
chain 1: QVQLVQSGAEVKKPGASVKVSCKASGYTFTSYVMHWVRQKPGQGLEWIGYINPYNEGTESTDKFKGRATMTSDKSTSTVYMELSSLRSEDTAVYYCASIYYGYEGTYFGVWGQGTLVTVSSASTKGPSVFPLAPSSKSTSGGTAALGCLVKDYFPEPVTVSWNSGALTSGVHTFPAVLQSSGLYSLSSVVTVPSSSLGTQTYICNVNHKPSNTKVDKKVEPKSCGGGGSGGGGSGGGGSGGGGSEVQLVESGGGLVQPGGSLRLSCAASGFTFSTYAMNWVRQAPGKGLEWVGRIRSKYNNYATYYADSVKGRFTISRDDSKNSLYLQMNSLKTEDTAVYYCVRHGNFGNSYVSWFAYWGQGTLVTVSSGGGGSDKTHTCPPCPAPEAAGPSVFLFPPKPKDTLMISRTPEVTCVVVDVSHEDPEVKFNWYVDGVEVHNAKTKPREEQYNSTYRVVSVLTVLHQDWLNGKEYKCKVSNKALPAPIEKTISKAKGQPREPQVYTLPPSREEMTKNQVSLWCLVKGFYPSDIAVEWESNGQPENNYKTTPPVLDSDGSFFLYSKLTVDKSRWQQGNVFSCSVMHEALHNHYTQKSLSLSPGGGGGSGGGGSGGGGSGGGGSQVQLVQSGAEVKKPGASVKVSCKASGYTFTSYYIHWVRQAPGQGLEWIGCIYPGNVNTNYNEKFKDRATLTVDTSISTAYMELSRLRSDDTAVYFCTRSHYGLDWNFDVWGQGTTVTVSS
chain 2: not shown
chain 3: EIVLTQSPATLSLSPGERATLSCRASSSVSYMHWYQQKPGQAPRPWIYATSNLASGIPARFSGSRSGTDYTLTISSLEPEDFAVYYCQQWSSNTLTFGGGTKVEIKRTVAAPSVFIFPPSDEQLKSGTASVVCLLNNFYPREAKVQWKVDNALQSGNSQESVTEQDSKDSTYSLSSTLTLSKADYEKHKVYACEVTHQGLSSPVTKSFNRGEC
notes: Tri-specific B7H3/CD3/CD28; central CD3 Fv, terminal CD28 Fv
B5: Anti-CD3 Ly305 (antibody, V domains shown)
VH: EVQLVESGGGLVQPGGSLRLSCAASGFTFSTYAMNWVRQAPGKGLEWVGRIRSKYNNYATYYADSVKGRFTISRDDSKNSLYLQMNSLKTEDTAVYYCVRHGNFGNSYVSWFAYWGQGTLVTVSS
VL: QAVVTQEPSLTVSPGGTVTLTCRSSTGAVTTSNYANWVQQKPGQAPRGLIGGTNKRAPWTPARFSGSLLGGKAALTITGAQAEDEADYYCALWYSNLWVFGGGTKLTVL
notes: mAb; also called parent anti-CD3 mAb

For this assay, the target named is CD3 (human). As to the kind of experiment: ELISA or FCM (as in Example 2). (In general: An ELISA detects its analyte on a solid surface through an enzyme-linked reagent.)
The molecule B1 showed an EC50 of 1.46 µg/mL.
As for B2, the figure is 0.419 µg/mL.
As for B3, the figure is 0.74 µg/mL.
In the case of B4 it was 1.08 µg/mL.
For B5, the EC50 was 0.03 µg/mL.
